Experimental data published in paper PMC2567903, “Repetitive N-WASP–Binding Elements of the Enterohemorrhagic Escherichia coli Effector EspFU Synergistically Activate Actin Assembly” (PLoS Pathogens, 2008).

Molecular target: T1, His6-Flag-tagged human N-WASP (human, UniProt O00401 1-505)
T1 construct: also called His-Flag-N-WASP; N-WASP of the recombinant N-WASP/WIP complex
Assay: SEC
Conditions: partners not purified

T1 sequence (O00401 whole entry): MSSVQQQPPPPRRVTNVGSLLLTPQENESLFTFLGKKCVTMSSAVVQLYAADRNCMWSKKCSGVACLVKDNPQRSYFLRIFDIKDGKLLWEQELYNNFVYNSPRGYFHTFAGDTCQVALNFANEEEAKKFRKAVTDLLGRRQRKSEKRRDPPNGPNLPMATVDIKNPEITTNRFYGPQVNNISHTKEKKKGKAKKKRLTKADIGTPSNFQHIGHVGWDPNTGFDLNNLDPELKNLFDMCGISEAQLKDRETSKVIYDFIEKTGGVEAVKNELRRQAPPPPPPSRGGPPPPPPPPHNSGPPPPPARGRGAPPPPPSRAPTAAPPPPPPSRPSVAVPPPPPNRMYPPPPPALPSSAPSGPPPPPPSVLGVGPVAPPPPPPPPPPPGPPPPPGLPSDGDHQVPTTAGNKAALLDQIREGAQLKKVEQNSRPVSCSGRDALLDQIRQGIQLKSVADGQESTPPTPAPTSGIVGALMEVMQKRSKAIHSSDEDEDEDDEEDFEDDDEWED

B1: His6-Myc-tagged human WIP (natural protein)
chain: not shown
notes: also called His-Myc-WIP
stoichiometry N: 1
